# Source: WO2021136808A1 (dated 2021)
# T1: human CTLA-4 (AA Ala37-Ser160) - Fc Tag fusion protein (AcroBiosystem, catalog no. CT4-H5255) (human, UniProt P16410 37-160)
# T1 construct: range 37-160; Bought reagent, coated to the ELISA plate wells as capture reagent; also called human CTLA-4 - Fc Tag fusion protein; not shown: Fc tag
# T1 sequence (looked up): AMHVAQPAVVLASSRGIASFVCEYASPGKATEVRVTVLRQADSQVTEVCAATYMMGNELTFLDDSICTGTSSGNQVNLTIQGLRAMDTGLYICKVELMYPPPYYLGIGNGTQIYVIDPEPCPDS
# B1: HHC MET (VHH)
# chain: EVQLVESGGGLVQAGGSLRLSCAASGGTFSFYGMGWFRQAPGKEQEFVADIRTSAGRTYYADSVKGRFTISRDNAKNTVYLQMNSLKPEDTAVYYCAAEMSGISGWDYWGQGTQVTVSSGGGGSGGGSEVQLVESGGGLVQAGGSLRLSCAASGGTFSFYGMGWFRQAPGKEQEFVADIRTSAGRTYYADSVKGRFTISRDNAKNTVYLQMNSLKPEDTAVYYCAAEMSGISGWDYWGQGTQVTVSS
# notes: Single polypeptide expressed in E. coli; In the ELISA it stood as free protein in rat plasma (calibration standards and samples); also called free HHC MET
# Biological target: T1, human CTLA-4 (AA Ala37-Ser160) - Fc Tag …
# Assay: in-house sandwich ELISA, CTLA-4-Fc coated on plate, HHC MET in rat plasma
binder,measurement,value
B1,binding result,binds
